Columns and labels:
[1] = system: chick embryo chorioallantoic membrane (CAM); experiment: Chick embryo chorioallantoic membrane (CAM) assay of VEGF-mediated angiogenesis; assay type: in vivo, chicken; conditions: VEGF165 100 ng
Source text: The CAM assay was done as described with slight modifications. Fertilized 3-day-old white Leghorn eggs (Sunnyside, Beaver Dam, Wis.) were cracked and embryos with the yolk intact were placed in glass-bottomed Petri dishes. […] Angiogenesis was reported as the angiogenic index (mean number of tertiary branchpoints from experimental conditions minus the mean number of branchpoints from buffer controls with no angiogenic stimulator).

[2] = system: PAE-FGFR1 cells; experiment: Endothelial cell proliferation in response to bFGF; assay type: cell-based, porcine; conditions: recombinant TIMP3 (1 and 5 μg/ml) or overexpression
[3] = system: endothelial cells; experiment: DNA synthesis ([3H]thymidine uptake) of endothelial cells in response to VEGF165; assay type: cell-based; conditions: TIMP3 at 1 μg/ml and 10 μg/ml
Protocol: (A) Proliferative response of PAE-KDR cells to VEGF165 (5 ng/ml; left) and VEGF121 (30 ng/ml; right). […] (C) DNA synthesis of endothelial cells in response to VEGF165. […] [3H]thymidine incorporation was measured during the last 5 h of incubation. (D) Analysis of endothelial cell expressing TIMP3. […] Expression of TIMP3 protein was determined by immunoblotting with antibody against TIMP3 (top left). MMP-inhibitory activity was determined by reverse zymography (top right). Corresponding densito-metric quantitation is expressed as arbitrary optical density (OD) units±s.d. (C) DNA synthesis in adenovirus-infected cells in response to VEGF. […] In all proliferation experiments, total number of cells was counted at 48 h. Proliferating cell number is expressed as means±s.e.m. of quadruplicate samples. DNA synthesis data represent the means±s.e.m. of triplicate samples; similar results were obtained in at least 2 different experiments. *, P<0.01.
A modified Boyden chamber assay for migration and proliferation assays were carried out as described.

[4] = system: soluble VEGFR-2; experiment: Soluble VEGFR-2 (sKDR) in conditioned medium (ELISA); assay type: cell-based, human; conditions: WT-TIMP3 cells; data not shown

B1: TIMP3: tissue inhibitor of metalloproteinases-3; recombinant human form expressed in NSO myeloma cells, or wild-type expressed in transfected cells (protein, listed as Homo sapiens)
chain: MTPWLGLIVLLGSWSLGDWGAEACTCSPSHPQDAFCNSDIVIRAKVVGKKLVKEGPFGTLVYTIKQMKMYRGFTKMPHVQYIHTEASESLCGLKLEVNKYQYLLTGRVYDGKMYTGLCNFVERWDQLTLSQRKGLNYRYHLGCNCKIKSCYYLPCFVTSKNECLWTDMLSNFGYPGYQSKHYACIRQKGGYCSWYRGWAPPDKSIINATDP
CAMs in which VEGF-induced branching and leakage of blood vessels were inhibited ([1]; 0.75 μg/disk, n=8): 75% | CAMs in which VEGF-induced branching and leakage of blood vessels were inhibited ([1]; […], n=10): 90% | effect on proliferative response to basic fibroblast growth factor (bFGF) [2]: Neither recombinant TIMP3 nor TIMP3 overexpression affected the proliferative response | inhibition of DNA synthesis in response to VEGF165 ([3H]thymidine uptake) [3]: could also inhibit DNA synthesis | cleaved sVEGFR-2 in the CM, less than mock cells [4]: 10 fold

— patent publication US8431396B2, “Anti-angiogenic peptides” (The Cleveland Clinic Foundation, priority 2003, dated 2013)
